In paper doi:10.1101/2021.08.16.456495 (bioRxiv, 2021):

B1: Nanobody TCNB11 (VHH)
VHH: QLQLVESGGGLVQAGGSLRLSCTASGRTGTMGWFRQGPGKEREFVASHKWVAGSTYYADSVKGRFTISRDNAKNTLYLQMNSLKSEDTAVYYCAASSQIFYGATTSIKDFNSWGKGTRVTVSS
B2: Nanobody TCNB26 (VHH)
VHH: QVQLVESGGGLVQAGESLRLSCAASGRTFAMAWFRQAPGKEREFVAVRGWLGVTTYYADSVKGRFTISRDNAKNTLDLQMNSLKPEDTAVYYCAAGQYSSSLYDRETEYNYWGQGTRVTVSS
B3: Nanobody TCNB4 (VHH)
VHH: QRQLVESGGGLVQPGGSLRLSCAASGFTPGIYDIGWFRQAPGKEREGVSCISSRGSSTNYADSVKGRFIISRDNVKNTVYLQMNSLEPEDTAVYYCAAIYQPSNGCVLRPEYSYWGKGTPVTVSS
B4: Nanobody TCNB34 (VHH)
VHH: QWQLVESGGGLVQPGGSLRLSCAASGSTFSSYAMGWYRQAPGKECELVAAISRAGGSTNYADSVKGRFTISRDNAKNTVYLQMNSLKPEDTAVYYCNAAAEGETGSNWSLCEEYDYWGKGTRVTVSS

How the values were obtained:
[1] = biological target: Transcobalamin (TC), B12-bound, as in the TC:TCblR complex (human, UniProt P20062); experiment: crystal structure
[2] = biological target: B12-bound complex of transcobalamin (TC) and its receptor TCblR (Homo sapiens); experiment: MST
[3] = biological target: Transcobalamin receptor TCblR (CD320), crystallization construct, as in the TC:TCblR complex (human, UniProt Q9NPF0); experiment: crystal structure
Sequence of Transcobalamin receptor TCblR (CD320), crystallization construct, as in the TC:TCblR complex (Q9NPF0 53-171, one chain of several): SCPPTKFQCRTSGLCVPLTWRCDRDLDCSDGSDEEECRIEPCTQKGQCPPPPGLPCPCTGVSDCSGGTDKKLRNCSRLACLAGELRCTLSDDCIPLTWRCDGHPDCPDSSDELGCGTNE

Sequence of Transcobalamin (TC), B12-bound, as in the TC:TCblR complex (P20062 19-427, one chain of several): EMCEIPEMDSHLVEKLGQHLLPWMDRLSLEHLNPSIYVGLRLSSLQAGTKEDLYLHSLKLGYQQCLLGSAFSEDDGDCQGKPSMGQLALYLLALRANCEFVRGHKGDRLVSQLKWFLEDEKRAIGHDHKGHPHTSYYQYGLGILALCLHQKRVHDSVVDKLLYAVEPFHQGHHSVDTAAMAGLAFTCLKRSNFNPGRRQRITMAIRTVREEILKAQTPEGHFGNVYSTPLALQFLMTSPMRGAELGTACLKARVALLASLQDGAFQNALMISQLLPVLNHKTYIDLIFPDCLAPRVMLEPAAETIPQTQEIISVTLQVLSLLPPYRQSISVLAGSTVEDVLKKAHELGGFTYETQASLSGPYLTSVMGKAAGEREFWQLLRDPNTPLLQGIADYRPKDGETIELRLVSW
Sequence of B12-bound complex of transcobalamin (TC) and its receptor TCblR (Homo sapiens) (P20062 19-427 R227Q, chain 1 of 2): as the sequence (P20062 19-427, one chain of several) above, with R209Q counted along it
Sequence of B12-bound complex of transcobalamin (TC) and its receptor TCblR (Homo sapiens) (Q9NPF0 53-171, chain 2 of 2, further chain): as the sequence (Q9NPF0 53-171, one chain of several) above

Binder | binding result [1] | Kd [2] [nM] | binding result [3]
B1 | binds | – | –
B2 | binds | 87.4 | –
B3 | binds | 5.2 | binds
B4 | binds | 12.8 | –
